{"source": "paper PMC10830420", "about": "“Structures, functions and adaptations of the human LINE-1 ORF2 protein” (Nature, 2023)", "system": "Nc1ncnc2c1ncn2[C@H]1C[C@H](O)[C@@H](COP(=O)(O)OP(=O)(O)OP(=O)(O)O)O1", "test": "Single nucleotide (dATP) incorporation kinetics, HERV-K RT", "assay_type": "biochemical, human", "settings": "20-nt DNA primer, HERV-K RT 12 nM", "procedure": "Extended Data Fig. 5 Comparative enzymology of ORF2p RT with HIV-1 and HERV-K. a, Single nucleotide incorporation kinetic curves and parameters of dATP with 36-nt RNA or DNA template and 20-nt DNA primer with ORF2p core (33 nM), HIV-1 RT (4 nM) and HERV-K RT (12 nM). For each enzyme, Michaelis-Menten parameter kcat/KM is nearly identical on both templates (n = 3 (DNA template) and n = 4 (RNA template) independent samples over 2 independent experiments; data represented as mean ± SD). b, Comparison of HIV-1 RT and ORF2p in extension of very short (5–10 nt) primers, pre-annealed to DNA and RNA templates. ORF2p extends all DNA and RNA primer lengths, with somewhat reduced efficiency at 5 nt and, to a lesser extent, 6 nt. […] ORF2p also makes NTA (+) and template jumping/switching (##) larger products; more visible on longer exposure. […] When all products are quantified, HIV-1 extends 21–37% of primers, and this is roughly halved by the heparin trap; ORF2p extends ~10–18% of primers and is unaffected by the trap. […] Asterisk (*) Cy5-5’-label on primer. n = 1 quantified samples shown representative of two independent experiments. […]", "data": [{"substance": "HERV-K RT (Homo sapiens)", "values": [{"measurement": "Km", "setting": "other: DNA template 36-nt", "result": "4.3 ± 0.1", "unit": "nM"}, {"measurement": "Km", "setting": "other: RNA template 36-nt", "result": "9.5 ± 0.1", "unit": "nM"}]}]}
